Read-outs that look alike come from different tables or passages of the source.
Assays:
[1] = target: Hfq (HfqEc) (Escherichia coli) (UniProt P0A6X3); experiment: EMSA
[2] = target: Hfq (HfqEc) (Escherichia coli) (UniProt P0A6X3); experiment: SHAPE footprinting
[3] = test system: HfqCp (Clostridium perfringens); experiment: EMSA; conditions: 50 mM Tris-HCl pH 7.5, 100 mM KCl, 10 mM MgCl2, room temperature; […]

Hfq (HfqEc) (Escherichia coli), sequence (P0A6X3 whole entry): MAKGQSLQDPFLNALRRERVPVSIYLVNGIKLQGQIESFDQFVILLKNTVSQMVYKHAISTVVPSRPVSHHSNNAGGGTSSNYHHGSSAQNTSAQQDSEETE

## GlmY
[1]
  Kd: 4.3 nM

## GGUUCUGGCCGGCUAACCCGGUCACAUGGGAUGAGGAGAUAACAUAAUCUCCCUCCCACAAGCAGUAACUAUAAAAAUAACCCCACUCUCUACAAGGCUCGGGGCGCCCGAAAAAACGGGCAUACAGGUUGACCGACAACGAUAUAAAUCGGAAUCAAAAACUAUGUGUGGAAUUGUUGGCGCGAAUAUUAAGCUUGCUCGG [glmS mRNA -161 to +21]
[1]
  Kd: 30 nM

## glmS mRNA -161 to +21
[1]
  Kd: 30 nM

## GGCCUUCGGGCCAAUUCUGGCCGGCUAACCCGGUCACAUGGGAUGAGGAGAUAACAUAAUCUCCCUCCCACAAGCAGUAACUAUAAAAAUAACCCCACUCUCUACAAGGCUCGGGGCGCCCGAAAAAACGGGCAUACAGGUUGACCGACAACGAUAUAAAUCGGAAUCAAAAACUAUGUGUGGAAUUGUUGGCGCGUCGAUCCGGUUCGCCGGAUCCAAAUCGGGCUUCGGUCCGGUUCAAUAUUGGAUCCGCUCGG [glmS mRNA SHAPE construct]
[2]
  binding: binds

## GlmZ
[1]; 50 mM Tris-HCl pH 7.5, 100 mM KCl, 10 mM MgCl2, room temperature, […]
  Kd: 4.5 nM
[3]
  Kd: 12 nM
